Tested on: T1, PhosFluor (the fluorescent protein having the amino acid sequence set forth in SEQ ID NO: 10)
T1 sequence: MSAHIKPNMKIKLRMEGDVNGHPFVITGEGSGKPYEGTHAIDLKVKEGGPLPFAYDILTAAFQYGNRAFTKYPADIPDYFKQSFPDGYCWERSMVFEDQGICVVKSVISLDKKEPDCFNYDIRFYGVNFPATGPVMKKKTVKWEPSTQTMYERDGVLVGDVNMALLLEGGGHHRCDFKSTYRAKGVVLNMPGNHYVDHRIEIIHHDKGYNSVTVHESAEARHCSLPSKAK

Sequence of Akt1 (P31749 whole entry): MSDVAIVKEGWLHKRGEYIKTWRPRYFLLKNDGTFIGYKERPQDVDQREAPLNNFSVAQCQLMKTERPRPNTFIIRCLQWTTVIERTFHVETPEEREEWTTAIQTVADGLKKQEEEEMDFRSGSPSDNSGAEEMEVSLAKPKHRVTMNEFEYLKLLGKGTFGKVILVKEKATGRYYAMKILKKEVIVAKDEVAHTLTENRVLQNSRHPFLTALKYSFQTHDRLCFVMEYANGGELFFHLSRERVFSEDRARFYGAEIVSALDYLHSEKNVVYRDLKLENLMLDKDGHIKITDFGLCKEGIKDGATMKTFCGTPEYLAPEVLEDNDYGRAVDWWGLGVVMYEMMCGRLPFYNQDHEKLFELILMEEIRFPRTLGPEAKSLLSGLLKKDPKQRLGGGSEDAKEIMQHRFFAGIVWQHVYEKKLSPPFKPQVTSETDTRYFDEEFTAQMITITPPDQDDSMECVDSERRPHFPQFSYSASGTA

Substance | Western blot analyses of phosphorylation | emission spectrum of PhosFluor | other results
Akt1 | serine and threonine sites on PhosFluor are phosphorylated by PKA, PKC, mitogen-activated protein kinase (MAPK), cell division control protein 2 (cdc2), and Akt1 | A marked shift in the emission spectrum of PhosFluor was observed when this molecule was incubated with PKA, PKC or Akt1 | excitation spectrum of PhosFluor: the excitation spectrum of PhosFluor was dramatically altered upon phosphorylation by different protein kinases, including Akt1
PKA | serine and threonine sites on PhosFluor are phosphorylated by PKA, PKC, mitogen-activated protein kinase (MAPK), cell division control protein 2 (cdc2), and Akt1 | A marked shift in the emission spectrum of PhosFluor was observed when this molecule was incubated with PKA, PKC or Akt1 | upward shift of apparent molecular weight on SDS-PAGE: To a lesser extent, higher molecular weight species were also observed upon phosphorylation by PKA
Src |  |  | SDS-PAGE and immunoblot of PhosFluor incubated with kinase (total protein, phospho-tyrosine, mobility shift): PhosFluor is an avid substrate for PKC and Src
alkaline phosphatase |  |  | fluorescence intensity of PhosFluor over time: This treatment virtually abolished the increase in fluorescence intensity of PhosFluor over time
cell division control protein 2 (cdc2) | serine and threonine sites on PhosFluor are phosphorylated by PKA, PKC, mitogen-activated protein kinase (MAPK), cell division control protein 2 (cdc2), and Akt1 |  | fluorescence intensity of PhosFluor incubated with kinase: The fluorescence intensity of PhosFluor also increased above background levels when the protein was incubated with cdc2 and MAPK (data not shown)
mitogen-activated protein kinase (MAPK) | serine and threonine sites on PhosFluor are phosphorylated by PKA, PKC, mitogen-activated protein kinase (MAPK), cell division control protein 2 (cdc2), and Akt1 |  | fluorescence intensity of PhosFluor incubated with kinase: The fluorescence intensity of PhosFluor also increased above background levels when the protein was incubated with cdc2 and MAPK (data not shown)
protein kinase C (PKC) | serine and threonine sites on PhosFluor are phosphorylated by PKA, PKC, mitogen-activated protein kinase (MAPK), cell division control protein 2 (cdc2), and Akt1 | A marked shift in the emission spectrum of PhosFluor was observed when this molecule was incubated with PKA, PKC or Akt1 | SDS-PAGE and immunoblot of PhosFluor incubated with kinase (total protein, phospho-tyrosine, mobility shift): PhosFluor is an avid substrate for PKC and Src; upward shift of apparent molecular weight on SDS-PAGE: when phosphorylated by PKC, multiple higher molecular weight species of PhosFluor were resolved by SDS-PAGE

Source: patent publication US20120252698
